Assay results from paper PMC11808191.

What was measured:
[1] = target: recombinant protein HR212 (HR2–linker 1–HR1–linker 2–HR2) (SARS-CoV-2 Wuhan hu-1 strain); test: SPR; Biacore 3000; HR212 fixed to a flow cell of a CM5 sensor; HR1 at 12.5, 25, 50, 100, 200 nM flowed over; 25°C
[2] = target: recombinant protein HR212 (HR2–linker 1–HR1–linker 2–HR2) (SARS-CoV-2 Wuhan hu-1 strain); test: native gel or EMSA; native PAGE of purified HR212

Substance	Kd [1]	koff [1]	kon [1]	stoichiometry N [2]
HR1 (heptad repeat 1 domain of the SARS-CoV-2 spike S2 subunit) (domain or fragment)	0.12 nM	1.4e-05 s⁻¹	120000 M⁻¹ s⁻¹	
recombinant protein HR212 (HR2–linker 1–HR1–linker 2–HR2)				3
